# Source: article PMC3251568
# Target: c-Abl (UniProt P00519)
# Test: anti-c-Abl IP, FLAG-PCNA western
# Conditions: reference: wild-type FLAG-PCNA; sites Y211
substance,measurement,value
PCNA (proliferating cell nuclear antigen) (from UniProt P12004) Y211F FLAG-PCNA,binding against the reference,weaker
